These results are taken from the supplement of paper PMC12764529.

± gives the half width of the 95% confidence interval.

Series [1] in a line: folding stability dG unfold from trypsin proteolysis; higher = more stable. In short, it runs like this:
(§1)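 Bayesian fitting of sequencing counts gave K50 for each design. Unfolding free energy followed by setting this against a sequence-predicted unfolded-state K50 and a shared folded-state K50, either per protease or with trypsin and chymotrypsin combined. The designs, under 80 residues and lacking cysteine, were digested in a PA-tagged cDNA display format at 11 threefold-diluted protease concentrations and without protease, and only those with AlphaFold2 dimer inter-PAE above 15 were kept.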

Series [2] is described as follows: folding stability dG unfold from chymotrypsin proteolysis; higher = more stable. In short, it runs like this: as §1
Series [3] in a line: folding stability dG unfold (combined trypsin and chymotrypsin); higher = more stable. In short, it runs like this: as §1

As for “SRLTVTSEVDPNGNSSTSTITYYDPSTGQPYTLTVTITKLPDGTYKVTITFPSNSTTTTFTLAPDETINLSA [r9_1220_JUSTAS]”, the “folding stability dG unfold” value in series [1] was 2.58 ± 0.2 kcal/mol; in series [2], 3.27 ± 0.055 kcal/mol; in series [3] it was 3.04 ± 0.22 kcal/mol.
For the sequence “SSASAMAPLPVEVYTLTVTVVKPGGEEVGTYTFTFNSPEEAKAFLEAFAKEKGLTIKKATLTRTPDTSLSSA [r9_1226_JUSTAS]”, the figures for the “folding stability dG unfold” value in series [1], in series [2] and in series [3] were 2.7 ± 0.12 kcal/mol, 4.59 ± 0.054 kcal/mol and 4.16 ± 0.1 kcal/mol, respectively.
The corresponding values for “SSEKVELAKKYLKEKGIPIKEFKEITPTGITILAPNGKWITISVKPGDLNEITINPKKSSDGGYENDIPYSA [r9_809_JUSTAS]” are 0.215 ± 0.049 kcal/mol, 0.92 ± 0.09 kcal/mol and 0.669 ± 0.088 kcal/mol.
The corresponding values for “SSGIAEIVAANPGVSLEELAKLIKEKLKAELPTDEPIEIKMTKSPDGYKITITIKDENNWHSDEYYVKPGSA [r9_805_JUSTAS]” are 2.95 ± 0.2 kcal/mol, 3.14 ± 0.16 kcal/mol and 3.07 ± 0.19 kcal/mol.
The corresponding values for “SSIEEQIREIFEPKGMEITDVKTEKKPDGTTVAKFTYTDPVKDEKGNPISTLTKEGTVVFKNGKIVEVEESA [r9_519_JUSTAS]” are 2.27 ± 0.052 kcal/mol, 2.779 ± 0.016 kcal/mol and 2.61 ± 0.049 kcal/mol.
For “SSIIIPGLPAEQARQLAKEFAEHYPNYDVKVEYHPDNGMITVDIEMPHKDPDGKPKGWRKMNINIHIWDPSA [r9_378_TrROS]”, the “folding stability dG unfold” value in series [1] came to 0.868 ± 0.12 kcal/mol; in series [2] it was 1.53 ± 0.17 kcal/mol; in series [3] it was 1.23 ± 0.2 kcal/mol.
The corresponding values for “SSIPLDVPPGERVVRKGVFPDGSELTATYDPTTGRWTVTYYPPDGSVRTSVVPGAALASLPPGFTETRLESA [r9_1110_JUSTAS]” are 1.45 ± 0.043 kcal/mol, 2.28 ± 0.034 kcal/mol and 2.02 ± 0.14 kcal/mol.
As to “SSITVVETREERVTLPDGREVTRRETRVVELSEEELRRLLRERLREALREAGIEEVTEEDLDSPEVLAALSA [r9_263_TrROS_Hall]”, the figures for the “folding stability dG unfold” value in series [1], in series [2] and in series [3] were 1.2 ± 0.054 kcal/mol, 2.2 ± 0.032 kcal/mol and 1.86 ± 0.12 kcal/mol, respectively.
On the same counts, the results for “SSLENLEPVSYDVTVEEGPTSPSGVTYTRITITEPGGSTATVTVTPESLTLDYSVRDKARVEALVRELLESA [r9_662_JUSTAS]” are 0.957 ± 0.019 kcal/mol, 0.989 ± 0.11 kcal/mol and 1.04 ± 0.064 kcal/mol.
The corresponding values for “SSLTVRLELEVTFEDGLRVRVEVEAELREVDGKLELRVRVRVEVRPLPPPPPPPPPPRLSDEQLEELRKRSA [r9_965_TrROS_Hall]” are 0.786 ± 0.19 kcal/mol, 2.34 ± 0.092 kcal/mol and 1.9 ± 0.19 kcal/mol.
The corresponding values for “SSMPTTVTLTNPADSTTTPLPVPSNISVETTTLPDGSTAGTVTVTDPSTGKTTTITFSGPNTLTSTSATSSA [r9_467_JUSTAS]” are 1.05 ± 0.03 kcal/mol, 0.398 ± 0.26 kcal/mol and 0.804 ± 0.13 kcal/mol.
Take “SSMYLLTVEITRPDGSVSSKTVPVNFAPGTTIDELLKALNLPKSSLATVTVTATEYSGGPPVTSTHTITLSA [r9_755_JUSTAS]”: the “folding stability dG unfold” value came out at 2.02 ± 0.065 kcal/mol in series [1], 2.44 ± 0.052 kcal/mol in series [2] and 2.34 ± 0.06 kcal/mol in series [3].
The corresponding values for “SSPGKITTYEVTLTLPGPRPMTSTVDPSGVMTATVPDGTKITATIVPGPGTLTITTTFPDGTTSTSTISASA [r9_99_JUSTAS]” are 1.26 ± 0.061 kcal/mol, 1.21 ± 0.058 kcal/mol and 1.26 ± 0.074 kcal/mol.
The corresponding values for “SSPKIVVEVTLDGNPRTITIPSSLSLEEIKEKILEALKEEGIEDVPIEEIKIKKEEELPTEEGESKIVVSSA [r9_1053_JUSTAS]” are 0.999 ± 0.066 kcal/mol, 2.08 ± 0.087 kcal/mol and 1.76 ± 0.15 kcal/mol.
On the same counts, the results for “SSPLDPAGRFTIEVVFTTSADGTLTATFTITAPGGVPLKTLTRSFTNPSPGKAAAVEEAEALKAEIEAAASA [r9_739_JUSTAS]” are 1.3 ± 0.025 kcal/mol, 2.35 ± 0.047 kcal/mol and 1.97 ± 0.064 kcal/mol.
As to “SSPSSVPDAVVQALKEAHPDVVSIEVTPLPPESTRISVTLKSGSGSSTVSFSIPSPEGVTRTYTVSVSNPSA [r9_678_JUSTAS]”, the “folding stability dG unfold” value was found to be 0.839 ± 0.063 kcal/mol in series [1], 1.18 ± 0.091 kcal/mol in series [2] and 1.04 ± 0.064 kcal/mol in series [3].
The corresponding values for “SSPVSFSTSTTSPPSPSSLPDGSTLSTTTTTYTAPDGSRYTVTSTTLTPPTGPATPVSTTTTSTGSSGPSSA [r9_394_JUSTAS]” are 0.514 ± 0.018 kcal/mol, 1.08 ± 0.043 kcal/mol and 0.872 ± 0.046 kcal/mol.
The corresponding values for “SSSIKTSTTTSTEPATGTTTTTTTVTYPDGTTTTTTTTTLPDGTTTVTTTTTPPDGSVTSTTTTLTSLTTTS [r1_461_JUSTAS]” are 1.24 ± 0.1 kcal/mol, 0.655 ± 0.043 kcal/mol and 0.904 ± 0.17 kcal/mol.
